According to publication PMC6359379, “SLC35A5 Protein—A Golgi Complex Member with Putative Nucleotide Sugar Transport Activity” (International Journal of Molecular Sciences, 2019):

B1: Solute carrier family 35 member A5 (SLC35A5), eGFP fusion (natural protein, human, UniProt Q9BS91 1-424, looked up)
chain: MEKQCCSHPVICSLSTMYTFLLGAIFIALSSSRILLVKYSANEENKYDYLPTTVNVCSELVKLVFCVLVSFCVIKKDHQSRNLKYASWKEFSDFMKWSIPAFLYFLDNLIVFYVLSYLQPAMAVIFSNFSIITTALLFRIVLKRRLNWIQWASLLTLFLSIVALTAGTKTLQHNLAGRGFHHDAFFSPSNSCLLFRSECPRKDNCTAKEWTFPEAKWNTTARVFSHIRLGMGHVLIIVQCFISSMANIYNEKILKEGNQLTESIFIQNSKLYFFGILFNGLTLGLQRSNRDQIKNCGFFYGHSAFSVALIFVTAFQGLSVAFILKFLDNMFHVLMAQVTTVIITTVSVLVFDFRPSLEFFLEAPSVLLSIFIYNASKPQVPEYAPRQERIRDLSGNLWERSSGDGEELERLTKPKSDESDEDTF
notes: SLC35A5, putative nucleotide sugar transporter; expressed from the plasmid pTag-GFP2-C-A5; FRET donor in every pair; In the pair A5 + A5 the second copy carried mRFP (pTag-RFP-C-SLC35A construct) in place of eGFP; also called pTag-GFP2-C-A5; source: HEK293T, transiently transfected, in living cells

target: B1; experiment: FRET or BRET; FLIM/FRET in living HEK293T cells transiently co-transfected, analysed 48 h after transfection in FluoroBrite DMEM; SLC35A5-eGFP as donor, mRFP-tagged SLC35A proteins as acceptors; eGFP lifetime of the donor alone 2.70 ns; details: partners not purified

| Binder | eGFP fluorescence lifetime of the donor with the acceptor (donor alone 2.70 ns) |
| --- | --- |
| SLC35A4, mRFP fusion (natural protein, UniProt Q96G79 1-324, looked up, SLC35A4, member of the SLC35A subfamily; expressed from a pTag-RFP-C-SLC35A construct; FRET acceptor; source: HEK293T, transiently transfected, in living cells) MSVEDGGMPGLGRPRQARWTLMLLLSTAMYGAHAPLLALCHVDGRVPFRPSSAVLLTELTKLLLCAFSLLVGWQAWPQGPPPWRQAAPFALSALLYGANNNLVIYLQRYMDPSTYQVLSNLKIGSTAVLYCLCLRHRLSVRQGLALLLLMAAGACYAAGGLQVPGNTLPSPPPAAAASPMPLHITPLGLLLLILYCLISGLSSVYTELLMKRQRLPLALQNLFLYTFGVLLNLGLHAGGGSGPGLLEGFSGWAALVVLSQALNGLLMSAVMKHGSSITRLFVVSCSLVVNAVLSAVLLRLQLTAAFFLATLLIGLAMRLYYGSR | 2.39 ns |
| CMP-sialic acid transporter (SLC35A1), mRFP fusion (natural protein, UniProt P78382 1-337, looked up, SLC35A1, CMP-sialic acid transporter; expressed from a pTag-RFP-C-SLC35A construct; FRET acceptor; The legend writes 'mRFP/SLC35A proteins'; also called mRFP/SLC35A1; source: HEK293T, transiently transfected, in living cells) MAAPRDNVTLLFKLYCLAVMTLMAAVYTIALRYTRTSDKELYFSTTAVCITEVIKLLLSVGILAKETGSLGRFKASLRENVLGSPKELLKLSVPSLVYAVQNNMAFLALSNLDAAVYQVTYQLKIPCTALCTVLMLNRTLSKLQWVSVFMLCAGVTLVQWKPAQATKVVVEQNPLLGFGAIAIAVLCSGFAGVYFEKVLKSSDTSLWVRNIQMYLSGIIVTLAGVYLSDGAEIKEKGFFYGYTYYVWFVIFLASVGGLYTSVVVKYTDNIMKGFSAAAAIVLSTIASVMLFGLQITLTFALGTLLVCVSIYLYGLPRQDTTSIQQGETASKERVIGV | 2.29 ns |
| UDP-galactose transporter (SLC35A2), Golgi splice variant, mRFP fusion (natural protein, UniProt P78381-2 1-393, looked up, expressed from a pTag-RFP-C-SLC35A construct; FRET acceptor; also called first splice variant of SLC35A2; source: HEK293T, transiently transfected, in living cells) MAAVGAGGSTAAPGPGAVSAGALEPGTASAAHRRLKYISLAVLVVQNASLILSIRYARTLPGDRFFATTAVVMAEVLKGLTCLLLLFAQKRGNVKHLVLFLHEAVLVQYVDTLKLAVPSLIYTLQNNLQYVAISNLPAATFQVTYQLKILTTALFSVLMLNRSLSRLQWASLLLLFTGVAIVQAQQAGGGGPRPLDQNPGAGLAAVVASCLSSGFAGVYFEKILKGSSGSVWLRNLQLGLFGTALGLVGLWWAEGTAVATRGFFFGYTPAVWGVVLNQAFGGLLVAVVVKYADNILKGFATSLSIVLSTVASIRLFGFHVDPLFALGAGLVIGAVYLYSLPRGAAKAIASASASASGPCVHQQPPGQPPPPQLSSHRGDLITEPFLPKSVLVK | 2.24 ns |
| UDP-galactose transporter (SLC35A2), ER splice variant, mRFP fusion (natural protein, UniProt P78381-1 1-396, looked up, SLC35A2, UDP-galactose transporter, the second splice variant, localised mainly to the ER (A2-ER); expressed from a pTag-RFP-C-SLC35A construct; FRET acceptor; also called second splice variant of SLC35A2; source: HEK293T, transiently transfected, in living cells) MAAVGAGGSTAAPGPGAVSAGALEPGTASAAHRRLKYISLAVLVVQNASLILSIRYARTLPGDRFFATTAVVMAEVLKGLTCLLLLFAQKRGNVKHLVLFLHEAVLVQYVDTLKLAVPSLIYTLQNNLQYVAISNLPAATFQVTYQLKILTTALFSVLMLNRSLSRLQWASLLLLFTGVAIVQAQQAGGGGPRPLDQNPGAGLAAVVASCLSSGFAGVYFEKILKGSSGSVWLRNLQLGLFGTALGLVGLWWAEGTAVATRGFFFGYTPAVWGVVLNQAFGGLLVAVVVKYADNILKGFATSLSIVLSTVASIRLFGFHVDPLFALGAGLVIGAVYLYSLPRGAAKAIASASASASGPCVHQQPPGQPPPPQLSSHRGDLITEPFLPKLLTKVKGS | 2.31 ns |
| UDP-N-acetylglucosamine transporter (SLC35A3), mRFP fusion (natural protein, UniProt Q9Y2D2 1-325, looked up, SLC35A3, UDP-N-acetylglucosamine transporter; expressed from a pTag-RFP-C-SLC35A construct; FRET acceptor; source: HEK293T, transiently transfected, in living cells) MFANLKYVSLGILVFQTTSLVLTMRYSRTLKEEGPRYLSSTAVVVAELLKIMACILLVYKDSKCSLRALNRVLHDEILNKPMETLKLAIPSGIYTLQNNLLYVALSNLDAATYQVTYQLKILTTALFSVSMLSKKLGVYQWLSLVILMTGVAFVQWPSDSQLDSKELSAGSQFVGLMAVLTACFSSGFAGVYFEKILKETKQSVWIRNIQLGFFGSIFGLMGVYIYDGELVSKNGFFQGYNRLTWIVVVLQALGGLVIAAVIKYADNILKGFATSLSIILSTLISYFWLQDFVPTSVFFLGAILVITATFLYGYDPKPAGNPTKA | 2.35 ns |

Target: the molecule itself
Experiment: as above
Details: not given

| Binder | eGFP fluorescence lifetime of the donor with the acceptor (donor alone 2.70 ns) |
| --- | --- |
| B1 | 2.51 ns |
